The data set deals with the molecule itself. The data set can be described thus: negative-stain electron microscopy.

Changes are numbered by the printed parent chain.

B1: Light-Dependent Protochlorophyllide Oxidoreductase, PORB isoform of A. thaliana, wild type (enzyme)
chain: QTAATSSPTVTKSVDGKKTLRKGNVVVTGASSGLGLATAKALAETGKWNVIMACRDFLKAERAAKSVGMPKDSYTVMHLDLASLDSVRQFVDNFRRTETPLDVLVCNAAVYFPTAKEPTYSAEGFELSVATNHLGHFLLARLLLDDLKKSDYPSKRLIIVGSITGNTNTLAGNVPPKANLGDLRGLAGGLNGLNSSAMIDGGDFDGAKAYKDSKVCNMLTMQEFHRRFHEETGVTFASLYPGCIASTGLFREHIPLFRALFPPFQKYITKGYVSETESGKRLAQVVSDPSLTKSGVYWSWNNASASFENQLSEEASDVEKARKVWEISEKLVGLA
In the case of B1, the binding result is on record as “binds”.

B2: Light-Dependent Protochlorophyllide Oxidoreductase (AtPORB) Y177F_H319A double mutant (enzyme, A. thaliana)
chain: B1 chain with Y111F, H253A
In the case of B2, the binding result is listed as “binds”.

The record behind these values is paper doi:10.1101/2023.08.28.555081 (bioRxiv, 2023).
